Earlier results on 3 compounds are cited in US7931890B2, “Targeted combination immunotherapy of cancer and infectious diseases” (Immunomedics, Inc., priority 1996, dated 2011).

For one data set, the target named is streptavidin (Streptomyces avidinii, UniProt P22629). The note with it: streptavidin-biotin system; Rosebrough 1993; cited from earlier work.
A further data set concerns the target T1, CEA (Homo sapiens, UniProt P06731).
T1 sequence (P06731 35-676): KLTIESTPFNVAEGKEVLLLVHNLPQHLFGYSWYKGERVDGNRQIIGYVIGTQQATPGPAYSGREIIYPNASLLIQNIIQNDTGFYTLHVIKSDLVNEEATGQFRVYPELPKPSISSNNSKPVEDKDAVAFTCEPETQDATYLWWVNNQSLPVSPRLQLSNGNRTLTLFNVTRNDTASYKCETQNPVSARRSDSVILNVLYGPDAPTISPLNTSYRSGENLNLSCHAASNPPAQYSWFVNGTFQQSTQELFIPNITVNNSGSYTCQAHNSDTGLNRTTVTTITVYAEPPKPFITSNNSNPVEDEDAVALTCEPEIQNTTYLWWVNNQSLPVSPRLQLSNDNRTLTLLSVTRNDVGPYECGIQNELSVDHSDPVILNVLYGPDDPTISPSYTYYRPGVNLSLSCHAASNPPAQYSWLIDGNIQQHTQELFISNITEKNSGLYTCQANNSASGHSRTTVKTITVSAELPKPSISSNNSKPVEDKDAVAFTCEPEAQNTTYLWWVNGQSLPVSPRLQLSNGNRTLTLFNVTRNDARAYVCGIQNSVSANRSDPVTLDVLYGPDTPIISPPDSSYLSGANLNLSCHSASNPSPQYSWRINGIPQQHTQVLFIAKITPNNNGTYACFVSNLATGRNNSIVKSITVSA
The note with it: Hansen et al. 1993; cited from earlier work.

The conditions of data set [1]: Rosebrough 1993; cited from earlier work.

Chain of streptavidin (P22629 25-183): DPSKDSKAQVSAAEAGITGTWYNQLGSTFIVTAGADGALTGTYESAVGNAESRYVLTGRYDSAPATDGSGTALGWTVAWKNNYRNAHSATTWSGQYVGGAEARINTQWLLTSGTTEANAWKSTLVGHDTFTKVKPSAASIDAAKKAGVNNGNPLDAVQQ

As to `O=C(O)CCCC[C@@H]1SC[C@@H]2NC(=O)N[C@@H]21` [biotin], at streptavidin, the Ka is recorded as 10^15 M^−1. Turning to MN-14: second generation CEA-antibody, the “affinity for CEA relative to first generation NP-4” value with CEA is given as “ten times more affinity”.

Consider “avidin: biotin-binding protein found in egg whites”, for which the pI in data set [1] is reported as more than 10.
